Results: patent US20140295012A1, “LATENT HUMAN IMMUNODEFICIENCY VIRUS REACTIVATION” (priority 2011, published 2014)
*1 amine or outer side, *2 acyl side, *3 side chain or, on linkers, in order; H or OH if unused. Where a SMILES comes first, the peptide text is derived from it. Bridges are numbered along the chain shown (N, C = ends). Roman numbers before positions name the chains, in order. [ ]: non-standard residue; d: D form. Actinocin(9to1) = Cc1c2oc3c(C)ccc(C(=O)[*:1])c3nc-2c(C(=O)[*:2])c(N)c1=O; NMeV = CN[C@H](C(=O)O)C(C)C; Sar = CNCC(=O)O

Experiments:
[1] = tested on: latently HIV-1 infected primary T cells; experiment: Reactivation of latent HIV-1 infection in primary T cells (GFP); assay type: cell-based; details: 24 hours
Method: Latently HIV-1 infected primary T cells were treated for 24 hours with aclacinomycin (ACM) or dactinomycin (ActD), or with the anti-CD3 monoclonal antibody (mAb) OKT3. Reactivation levels were determined as a percentage of GFP-positive cells 24 hours after stimulation. Viability of the cells correlates with the size of the symbol.
To determine if aclacinomycin or dactinomycin were capable of reactivating a latent HIV-1 infection in primary T cells, latently HIV-1 infected primary T cells were treated with aclacinomycin or dactinomycin or with the anti-CD3 monoclonal antibody OKT3 for 24 hours. Reactivation of the latent HIV-1 infection was observed by increasing levels of GFP fluorescence.

[2] = tested on: latently HIV-1 infected J89GFP T cells; experiment: HIV-1 reactivation / priming in latently HIV-1 infected J89GFP T cells (GFP, flow cytometry, HTS); assay type: cell-based
Method: Flow cytometry. Infection levels in the cell cultures were monitored by flow cytometric (FCM) analysis of GFP expression. […] Cell sorting experiments were performed using a FACSAria™ Flow Cytometer (Becton&Dickinson). Data analysis was performed using either CellQuest (Becton&Dickinson) or GUAVA Express (GUAVA Technologies, Inc.).

NF-κB p50 and p65 = NF-κB p50 and p65 activity in PBMCs (TransAM NF-κB family ELISA); assay type: cell-based; details: compared to PHA-L
Method: (§1) FIGS. 8A-8C show HRF induced NF-κB and cytokine expression in peripheral blood mononuclear cells (PBMCs). […] PBMCs were activated with optimal concentrations of either PHA-L or with HRF. Cells were harvested at the indicated time points. Nuclear extracts were generated and NF-κB p50 activity and NF-κB p65 activity were determined using the TransAM™ NF-κB family ELISA kit (Active Motif). […] PBMCs from four different healthy donors were stimulated with an anti-CD3/CD28 antibody combination and infected with a GFP reporter virus on day 4 post-stimulation. HIV-1 replication was monitored in the absence (C) or presence of HRF for 5 days and the achieved HIV-1 infection levels were determined by flow cytometric analysis for the percentage of EGFP-positive cells. All infections were normalized to the infection level in the untreated culture and the histogram represents the mean infection levels obtained in 4 donor cultures±standard deviation. […] Culture supernatants were collected after 24 hours and the concentrations of a panel of cytokines was determined by BioPlex analysis. […]
NF-κB activity in nuclear extracts was quantified using the TransAM™ NF-κB family ELISA kit from Active Motif, Inc. (Carlsbad, Calif.) according to the manufacturer's instructions.

[3] = tested on: latently HIV-1 infected reporter T cell lines; assay type: cell-based
Method: FIGS. 1A and 1B show culture supernatants from Massilia timonae reactivate latent HIV-1 infection. […] Untreated control cells and HRF-treated cells were subjected to flow cytometric analysis to determine enhanced green fluorescent protein (EGFP) expression as a direct and quantitative marker of HIV-1 expression 24 hours post stimulation. FSC/SSC dot plots are represented to evaluate cell viability as a function of changes in the FSC (cell size)-SSC (granularity) phenotype of the cells. FIG. 1B is a histogram showing the reproducibility of the observed HIV-1 reactivation. Three independent preparations of HRF (batches HRF1-3) on four different latently infected T cell lines (5F3, 8E12, CA5 and 12D4) were tested. The percentage of EGFP positive cells following stimulation is depicted in the histogram. Cell culture supernatants of Pseudomonas aeruginosa cultures, grown under similar conditions, were used as specificity controls.
Infection levels in the cell cultures were monitored by flow cytometric analysis of EGFP expression. Flow cytometric analysis was performed on a GUAVA EasyCyte (Millipore; Billerica, Mass.), or a LSRII (Becton & Dickinson; Franklin Lakes, N.J.).

Jurkat T cells = experiment: Protection of Jurkat T cells from poly (I:C) induced apoptosis (viability); assay type: cell-based; details: compared with Salmonella typhimurium flagellin
Method: High concentrations of poly (I:C) trigger apoptosis in Jurkat cells and reduce cell viability. Viability of control cells (C) was compared to the viability of cell cultures treated with poly (I:C) (10 μg/ml) and increasing amounts of either flagellin or HRF.

[4] = tested on: HIV-1 replication in PBMCs; experiment: HIV-1 replication in PBMCs infected with GFP reporter virus; assay type: cell-based; details: saturating HRF levels, 5 days post infection
Method: FIGS. 8A-8C show HRF induced NF-κB and cytokine expression in peripheral blood mononuclear cells (PBMCs). […] PBMCs were activated with optimal concentrations of either PHA-L or with HRF. Cells were harvested at the indicated time points. Nuclear extracts were generated and NF-κB p50 activity and NF-κB p65 activity were determined using the TransAM™ NF-κB family ELISA kit (Active Motif). […] PBMCs from four different healthy donors were stimulated with an anti-CD3/CD28 antibody combination and infected with a GFP reporter virus on day 4 post-stimulation. HIV-1 replication was monitored in the absence (C) or presence of HRF for 5 days and the achieved HIV-1 infection levels were determined by flow cytometric analysis for the percentage of EGFP-positive cells. All infections were normalized to the infection level in the untreated culture and the histogram represents the mean infection levels obtained in 4 donor cultures±standard deviation. […] PBMCs from four healthy donors were left unstimulated (C) or stimulated with an anti-CD3/CD28 antibody combination as a positive control or were stimulated with a concentration of HRF that would trigger maximum HIV-1 reactivation in CA5 T cells. Culture supernatants were collected after 24 hours and the concentrations of a panel of cytokines was determined by BioPlex analysis. […]

IL-8, TNF-α, and IFN-γ = experiment: Cytokine secretion by PBMCs (BioPlex analysis); assay type: cell-based, human; details: 24 hours
Method: as §1, with “cells.” for “cells. All infections were normalized to the infection level in the untreated culture and the histogram represents the mean infection levels obtained in 4 donor cultures±standard deviation.”
Following stimulation of the peripheral blood mononuclear cells (PBMCs) with PHA-L or HIV-1 reactivating factor (HRF), supernatant samples were collected at time points between 12 and 48 hours post stimulation. […] Therefore, cytokine levels in culture supernatant samples from all donors were determined at the 24 hour time point using a customized Milliplex mAP kit for the simultaneous analysis of six human cytokines (IL-2, IL-4, IL-6, IL-8, TNF-α and IFN-γ). […]

Row | Molecule | reactivation of latent HIV-1 infection [1] | priming of latent HIV-1 infection for reactivation ([2]; in combination with sub-optimal TNF-α) | HIV-1 reactivating capacity by itself ([2]; relative to latently infected control cells) | NF-κB p50 and p65 activity peak (NF-κB p50 and p65) | cell viability (flow cytometric FSC/SSC analysis) ([3]; culture supernatant on latently infected reporter T cell lines) | HIV-1 reactivation ([3]; four latently infected reporter T cell lines, culture supernatant) | protection from induced apoptosis (Jurkat T cells) | HIV-1 replication [4] | pro-inflammatory cytokine secretion (IL-8, TNF-α, and IFN-γ) (IL-8, TNF-α, and IFN-γ)
1 | Cc1c2oc3c(C)ccc(C(=O)N[C@@H]4C(=O)N[C@H](C(C)C)C(=O)N5CCC[C@H]5C(=O)N(C)CC(=O)N(C)[C@@H](C(C)C)C(=O)O[C@@H]4C)c3nc-2c(C(=O)N[C@@H]2C(=O)N[C@H](C(C)C)C(=O)N3CCC[C@H]3C(=O)N(C)CC(=O)N(C)[C@@H](C(C)C)C(=O)O[C@@H]2C)c(N)c1=O [dactinomycin] (I: T[dV]P[Sar][NMeV] / II: T[dV]P[Sar][NMeV]; ester I:1-I:C, II:1-II:C; linker I:N-II:N via Actinocin(9to1)) | capable of reactivating latent HIV-1 infections | potently primed latent HIV-1 infection for reactivation | did not exhibit HIV-1 reactivating capacity by itself | – | – | – | – | – | –
2 | HRF: flagellin polypeptide from Massilia timonae (SEQ ID NO:10), used as bacterial culture supernatant (protein) MASVINTNVPSLNSQRNLSTSQAQLNTSIQRLSSGMRINSAKDDAAGLAISDRMNSQIKGMTQATRNANDGVSMAQTAEGALSSSGDILQRIRELAVQSSNSSNSASDRKALQTEVTQLSSELNRIANTTEFNGQKLMDGTLGTANFQVGANAGQLISMTGANFNTSVYGNNQIAGDAAKAAATTSAAATGAFTISGYLGTSAAINTTDADTAKTIAASINNVTGDTGVTATARTDSFLKSAGGAHTMSLASDNSGTGEAVDISFTVGDGGDTADDYAAAISAFNAQTAKTGVTAEYDAVEKGLKLTNSAGENISLTNKAGSADIDMDTYAADGALMASALTLEAGDVGVANGRVTMDSEKSFSVAEGTDTGFELADSSALKSVAKIDISDFEGAQEAIKVADAALSAVNSQRAEYGALQSRFESAISNLSSSTENLSASRSRIVDTDFAAETAKMTRGQILQQAGTSMLAQANSLPNGVLSLLRG | – | – | – | very high, but short-lived | No effect on cell viability | efficiently reactivate latent HIV-1 infection | greater efficacy | not significantly increased | did not induce meaningful levels
